From paper PMC11134550

Columns and labels:
Assay in all cases: SPR; Biacore T200; integrin (approx. 1000 RU) or TGFβRII (approx. 400 RU) amine-coupled to CM5 chip; galectin-3 2-fold serial dilutions injected (19.5-5000 nM integrins, 156.3-20000 nM TGFβRII), 30 μl/min, 20 °C, contact 120 s; HBS-P+ pH 7.4 ±1 mM MnCl2; steady-state fit, one-site specific binding; minimum number of binding sites = maximum response/Rmax
[1] = target: recombinant human integrin αvβ1 (glycosylated) (human) (UniProt P06756)
[2] = target: recombinant human integrin αvβ6 (glycosylated) (human) (UniProt P06756)
[3] = target: recombinant human integrin αvβ5 (glycosylated) (human) (UniProt P06756)

With “recombinant human galectin-3 (expressed and purified for SPR) (from UniProt P17931 1-250) (natural protein)” the binding response relative to αvβ6 [1] was 2 fold, the stoichiometry N (individual galectin-3 proteins) [1] was greater than 16 and the stoichiometry N (individual galectin-3 proteins) [2] was greater than 8. It also gave a binding response relative to αvβ6 [3] of 2 fold and a stoichiometry N (individual galectin-3 proteins) [3] greater than 16.
